{"source": "patent US20230220080A1", "molecular_target": "B lymphoma cell lines Raji or Daudi (CD20 and CD22)", "assay": "FACS on Raji cells, Alexa Fluor 488 anti-human IgG1, MFI; binder is a 1:1 mixture"}
{"substance": "Epratuzumab/ Ofatumumab (1:1)", "values": [{"measurement": "EC50", "value": 3.25, "unit": "nM"}]}
